The source of these data is the nanobody polyreactivity screen of Harvey et al. (2022).

The series is described as follows: yeast display, Sf9 membrane polyspecificity reagent, FACS + sequencing; frameworks hold sequencing errors. The method, boiled down: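 Galactose-induced (36–48 hours) yeast carrying a synthetic nanobody display library were exposed to 10% biotinylated, detergent-solubilized Sf9 membrane reagent at 4 °C for 1 hour. FACS followed streptavidin microbead enrichment, using low and high (top ~1%) gates for expression (anti-HA) and reagent binding (streptavidin). Colony PCR, MiSeq 2 × 250 sequencing and CDR-length filtering followed. Labels for polyreactivity reflect the gate of origin.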
In the case of “QVQLVDSGGGLVQAGGSLRLSCAASGLTFKRYAMGWYRQAPGKERQLVASITGNGGSSYYADSVKGRFTISRDNAKNTVYLQMNSLKPEDTAVYYCNARRYVRTSQQPLYDYWGQGTQVTVSS”, the “polyreactivity (PSR sort gate)” value is “high polyreactivity”. As for “QVQLVESGGGLVQAGGSLRLSCAASGRIFVGYAMGWYRQAPGKERELVATITGSGGRTYYADSVKGRFTISRDNAKNTVYLQMNSLKPEDTAVFYCATRPPLFYYDDHDDDDYWGQGTQVTVSS”, the “polyreactivity (PSR sort gate)” value is given as “low polyreactivity”. For the sequence “QVQLVESGGGLVQAGGSLRLSCAASGSIFGGYAMGWYRQAPGKERELVAAISYRGASTYYADSVKGRFTISRDNAKNTVYLQMNSLKPEDTAVYYCAARHDKRRQYYVGQSAFDYWGQGTQVTVSS”, the “polyreactivity (PSR sort gate)” value was “low polyreactivity”.

Consider “QVQLVESGGGLVQAGGSLRLSCAASGIIFYYYGMGWYRQAPGKEREFVAAISTSGGNTYYADSVKGRFTISRDNAKNTVYLQMNSLKPEDTAVYYCAADDLAWGDAGVDYWGQGTEVTVSS”, for which the “polyreactivity (PSR sort gate)” value was “low polyreactivity”.

For the sequence “QVQLVESGVGLVQAGGSLRLSCAASGITFYGYTMGWYRQAPGKEMELVASIRWRGGNTYYADSVKGRFTISRDNAKITVYLQMNSLKPEDTAVYYCNARARVYYYKEIVAYDYWGQGTQVTVSS”, the “polyreactivity (PSR sort gate)” value is on record as “high polyreactivity”. Regarding “QVQLVESGGGLVQAGGSLRLSCAASGSTFVRNAMGWYRQPPGKDRELVAAISWRGGSTYYADTVKGRFTISRDNAKNTVYLQMNSLKPEDTAVYYCNKVGTWQGPYDYWGQGTQVTVSS”, the “polyreactivity (PSR sort gate)” value is “high polyreactivity”. With “QVQLVESGGGLVQAGGSLRLSCAASGSIVDNRGWYRQAPGKERELVAAISSSGDSTYYADSVKGRFTISRDNAKNTVYLQMNSLKPEDTAVYYCAADFYYYKKQYDYWGQGTQVTVSS”, the “polyreactivity (PSR sort gate)” value is recorded as “low polyreactivity”. Consider “QVQLVESGGGFVQAGGSLRLSCAASGHIFFYYTKGWYRQAPGKERELVAGITIGGSTNYADSVKGRFTISRDNAKNSVYLQMNSLKPEDTAVYYCYVVLYVSIYSYGEYYYWGQGTQVTVSS”, for which the “polyreactivity (PSR sort gate)” value is “low polyreactivity”.

For the sequence “QVQLVESGGGLVQAGGSLRLSCAASGRTFGGYAMGWYRQAPGKERELVASITRSGGGTYYADSVKGRFTISRDNAKNTVYLQMNSLKPEDTAVYYCAVYFANPYSVYGLGVYSTLNYWGQGTQVTVSS”, the “polyreactivity (PSR sort gate)” value is given as “low polyreactivity”.

Turning to “QVQLHESGGGLVQAGGSLRRSCAASGTISYAGPMGWYRQAPGKEREFVAGIGVGSNTNYADSVKGRYTIIRDNAKNTVYLQMNSLKPEDTAVYYCAVGGYAPLGRPYWGQGTQVTVSS”, the “polyreactivity (PSR sort gate)” value is “low polyreactivity”. On to “QVQLVESGGGLVQAGGSLRISCAASGSTNEYAMGWYRQAPGKERELVAAITWSGGRTYYADSVKGRFTISRDNAKNTVYLQMNSLKPEDTAVYYCAKAYYARHGRYTYYSWGQGTQVTVSS”, for which the “polyreactivity (PSR sort gate)” value is recorded as “high polyreactivity”.

Consider “QVQLVESGGGLVQAGGSLRLSCAASGFTFDYNAMGWYRQAPGKERELVAGITSGGRTYYADSVKGRFTISRDNAKNTVYLQMNSLKPEDTAVYYCAATPEPPAYGTPLVPYSYDYWGQGTQVTVSS”, for which the “polyreactivity (PSR sort gate)” value is recorded as “low polyreactivity”. For the sequence “HVQHVESGGGLVHAGGSLRLRCAASGSIFVYYAMGWYRQAPGKERELVAAISGGGGRKYYADSVKGRFTISRDNANNTVYLQMNSLKPDDTAVYYCAARRATYPGGFYSWGQGSQVTVSS”, the “polyreactivity (PSR sort gate)” value was “high polyreactivity”. As for “QVQLVESGGGLVQAGGSLRLSCAASGRTFYGNAIAWYRQAPGKERELVAAINRGGNTNYADSVKGRFTISRDNAKNTVYLQMNSLKPEDTAVYYCAARPYYRYFEYWGQGTQVTVSS”, the “polyreactivity (PSR sort gate)” value is listed as “high polyreactivity”. Regarding “QVQLVESGGGLVQAGGSLRLSCAPSGRIFSFNTMVLYRHAPGTEREFVATIRYSGGSTYADSVKGRFTISRDNAKNTVYLQMNSLKPEDTAVYYCAAAWWSYKFNRDFDYWGQGTQVTVSS”, the “polyreactivity (PSR sort gate)” value is listed as “low polyreactivity”. The result for “QVQLVESGGGLVHAGGSLRLSCASSGFTFWKYAIGGYRQAPGKERELVATISLGGARTYYADSVKGRFTISLDNAKNTVYLQMNSLKPEDTAVYYCNARCRWTANFDYWVQGTQVTVSS” reads “high polyreactivity”; that for “QVQLVESGGGLVQAGGSLRLSCAASGRIFTEYVMGWYRQAPGKERELVAAAITRGGSTNYADSVKGRFTISRDNAKNTVYLQMNSLKPEDTAVYYCNKDDWPVSRQLYTGKYDSWGQGTQVTVSS”, “low polyreactivity”. Consider “QVQLVETGGGLVQAGGILRLSCAASGRIFGYNTMGWYRQAPGKERELVARISYDVDSTYYADSVKGRFTISRDNAKNTVYLQMNSLKPEDTAVYYCNARRSNLGSYIEYFGFDYWGQGTQVTVSS”, for which the “polyreactivity (PSR sort gate)” value is recorded as “low polyreactivity”. For “QVQLVESGGGLVQAGGSLRLTCAASGSTFISYAMGWYRPAPGKERELVAAISRRGDSTYYADSVKGRFTISRDNAKYTVYLQMKSLKPEDTAVYYCAADSYPAYLGFVGFDYWRQGTQVTVSS”, the “polyreactivity (PSR sort gate)” value is given as “low polyreactivity”.

Take “QVQLVESGGGLVQAGGSLRLSCAASGSIFPVYAMGWYRQAPGKERELVAAISSRGGTTYYADSVKGRFTISRDNAKNTVYLQMNSLKPEDTAVYYCAATRSGKYYGTRRKYGYWGQGTQVTVSS”: the “polyreactivity (PSR sort gate)” value is “high polyreactivity”. As for “QVQLVESGVCIVQAGGSLRLSCAASGFTFRENAMGWYRQAPGKERELVAAISKRGGTTYYADSVKGRFTSSRDYAKNTVILQTNSLKPEDTAVYYCATQYLIQNKYYSWGQGTQVTVSS”, the “polyreactivity (PSR sort gate)” value was “high polyreactivity”. In the case of “QVQLVESGGGLVQAGGSRRLSCAASGIIFAYYAMGWYRQAPGKERELVASISSTGGSTYYADSVKGRFTISRDNAKNTVYLQMNSLKPEDTAVYYCAVDGLPPKDALHLYYYWGQVTQVTVSS”, the “polyreactivity (PSR sort gate)” value was “low polyreactivity”. “QVQLVESGGGLVQAGGSLRLSCAASGSIFKYYAMGWYRQAPGKEREFVAAITRSGGSTYYADSVKGRFTISRDNAKNTVYLQMNSLKPEDTAVYYCAARSYARPGGSRFDYWGQGTQVTVSS”: the “polyreactivity (PSR sort gate)” value was “high polyreactivity”. Consider “QVQLVESGGGLVQAGGSLRLICAASGSTVYNAMGWYRQAPGTEREFVAVITDSDGSTYYADSVKGRFTISRDNAKNTVYLQMNSLKPEDTAVYDCAADDYAYSYGYWLTYDYWGQGTQVTVSS”, for which the “polyreactivity (PSR sort gate)” value is given as “low polyreactivity”. For “QVQLVESGGGLVQAGGSLRLSCAASGSIVYYNAMGWYRQAPGKERELVASISNGGSTDYADSVKGRFTISRDNAKNTVYLQMNSLKPEDTAVYSCNAKQSYRSEYDYWGQGTQVTVSS”, the “polyreactivity (PSR sort gate)” value is listed as “low polyreactivity”. For “QVQLVESGGGLVQAGGSLRLSCAASGLTFYYYTMGWYRQAPGKERELVAAITSGGSTYYADSVKGRFTISRDNAKNTVYLQMNSLKPEDTAVYDCAAVPSRYGRYRYYYWGQGTQVTVSS”, the “polyreactivity (PSR sort gate)” value is “high polyreactivity”. Regarding “QVQLVESGGGLVQAGGSLRLSCAASGRIIGRYAMGWYRPAPGKERELVAAISSSGSTYYADSVKGRFTISRDNAKNTVYLQMNSLKPEDTAVYYSAAYYRGRAYISYGYWGQGTQVTVSS”, the “polyreactivity (PSR sort gate)” value is listed as “high polyreactivity”. Consider “QVQLVESGGGLVQEGGSLRLSCAASGSTFAANTMGWYRQAPGKERELVAAITVRGGSTYYADSVKGRFSMSRDNAKNTVYLQTNSLKPEDTAVYDCAAERPPYGYLVVGYVSTQYYYWGQGTQVTVSS”, for which the “polyreactivity (PSR sort gate)” value was “low polyreactivity”. In the case of “QVQLVESGGGLLQAGGSLRLSCAASGSISGYYAMGWYRQAPGKERELVASIRYTGARTYYADSVKGRFTISRDNAKNTVYLQMNSLKPEDTAVYYCAADVKRDRVWGGDYWGQGTQVTVSS”, the “polyreactivity (PSR sort gate)” value is given as “low polyreactivity”.

Take “PVQLVESGGGLVQAGGILRLSCAACGRIFQRNAMGWYRQAPGKERELVATITSRGGSTYYADSVKGRFTISRDNAKNTVYLQMNSLKPEDTAVYYCAADPRRYRGFGYVYGGFYYWGQGTQVTVSS”: the “polyreactivity (PSR sort gate)” value is on record as “low polyreactivity”. Take “QVKLVESGGGIVQAGGSLRLTCAASGSTVRLYAMGCYRQAPGKERELVAAISTRGSSTYYADSVKGRFTISRDNAKNTVYLQMNSLKPEDTAVFYCAADAYFIYSRYWYDYWGQGTQVTVSS”: the “polyreactivity (PSR sort gate)” value is listed as “high polyreactivity”. As to “QVQLVESGGGLVQAGGSLRLSCAASGLTFPRYAMGGYRQAPGKERELVAAISYRGGRTYYADSVKGRFTISRDNAKNTVYLQMNSLKPEDTAVYYCNADSIYSARGWLYGYWGQGTQVTVSS”, the “polyreactivity (PSR sort gate)” value is on record as “low polyreactivity”. In the case of “QVQLVESGGGLVQAGGSLRLSCAASGRTLFSNAMGWYRQAPGKERELVASITSGDSTYYADSVKGRFTISRDNAKNTVYLQMNSLKPEDTSVYYCAADPSIVDGEYGYWGQGTQVTVSS”, the “polyreactivity (PSR sort gate)” value was “low polyreactivity”.

With “QVQLVESGGGLVQAGGSLRLSCAASGLTFYLYAMGWYRQAPGKERELVAAITTSGGSTYYADSVKGRFTISRDNAKNTVYLQMNSLKPEDTAVYDCATQGAIRGYGYWGQGTQVTVSS”, the “polyreactivity (PSR sort gate)” value was “high polyreactivity”. In the case of “QVQLVESGGGLVQAGGSLRLSCAASGLIFVSYAMGWYRPAPGKERELVAAINSRGSRTYYADSVKGRFTISRDNAKNTVYLQMNSLKPEDTAVYYCAAGVIRYGGKEEYYYWGQGTQVTVSS”, the “polyreactivity (PSR sort gate)” value is listed as “high polyreactivity”. Consider “QVQLVESGGGLVQAGGSLRLSCAASGRTFWYYTMGWYRQAPGKERELVAAISSGGRTNYADSVKGRFTISRDNAKNTVYLQMNSLKPEYTAVYYCATSRYYKYVERDYWGQGTQVTVSS”, for which the “polyreactivity (PSR sort gate)” value was “high polyreactivity”.

With “QVQLVESGGGLVQAGGSLRLSCAASGLIFESNAMGWYRQAPGKGRELVAAITTNGGSTYYADSVKGRFTISRDKGKNTVYLQMNSLKPEDTAVYYCAARFSYRSYDYWGQGTQVTVSS”, the “polyreactivity (PSR sort gate)” value is given as “low polyreactivity”.

Regarding “QVQLVESGVGLVQAGGSLRLSCAASGSTFGTYDMGWFRQAPGKERELVAAITWIGDTTYYADSVKGRFTISRDNAKNTVYLQMNSLIPEDTAVYYCAAEPNYQYYGPLGYDYWGQGTQVTVSS”, the “polyreactivity (PSR sort gate)” value is “low polyreactivity”. In the case of “QVQLVESGGRLVQAGGSLRLSCAASGYIVTIYAMGWYRQAPGKEREFVAAITWSGGRTYYADSVKGRFTISRDNPKNTVYIQRNSLTPEDTAVYYCDARVANYLSQMYYWGQGTQVTVSS”, the “polyreactivity (PSR sort gate)” value is “high polyreactivity”. In the case of “QVHLVESGGGLVQAGGSLRLSCAASGSTFRSYVMGWSRQAPGKERELVAAISRGGTTYYADSVKGRFTISRDNAKNTVYLQMNSLKPEDTPVYYCAATRTTRFYTGSKMNYWGQGTQVTVSS” it was “high polyreactivity”.
